# Results: patent publication US20240301062A1
# Legend:
# CD3ε/δ (SPR analyte) [1] = target: CD3ε/δ (SPR analyte) (UniProt P07766); assay: SPR, antibody captured by anti-human Fc
# CD3ε/δ (SPR analyte) [2] = target: CD3ε/δ (SPR analyte) (UniProt P07766); assay: SPR, antibody captured by anti-human Fc; remark: listed apart in the source
# CD3ε/δ (SPR analyte) [3] = target: CD3ε/δ (SPR analyte) (UniProt P07766); assay: SPR
# Sequence of CD3ε/δ (SPR analyte) (P07766 23-126, stated change not applied, chain 1 of 2): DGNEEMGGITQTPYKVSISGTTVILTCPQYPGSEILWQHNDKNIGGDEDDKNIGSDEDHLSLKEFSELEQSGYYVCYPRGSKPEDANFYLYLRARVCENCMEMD
# Sequence of CD3ε/δ (SPR analyte) (P04234 22-105, stated change not applied, chain 2 of 2, further chain): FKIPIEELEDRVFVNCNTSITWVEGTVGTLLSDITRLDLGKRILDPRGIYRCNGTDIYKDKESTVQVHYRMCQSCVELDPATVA
Binder,Kd (CD3ε/δ (SPR analyte) [1]) [nM],koff (CD3ε/δ (SPR analyte) [1]) [s⁻¹],kon (CD3ε/δ (SPR analyte) [1]) [M⁻¹ s⁻¹],Kd (CD3ε/δ (SPR analyte) [2]) [nM],koff (CD3ε/δ (SPR analyte) [2]) [s⁻¹],kon (CD3ε/δ (SPR analyte) [2]) [M⁻¹ s⁻¹],Kd (CD3ε/δ (SPR analyte) [3]) [nM],koff (CD3ε/δ (SPR analyte) [3]) [s⁻¹],kon (CD3ε/δ (SPR analyte) [3]) [M⁻¹ s⁻¹]
"chimeric sp34 (ch-sp34) (antibody, V domains shown) VH: EVQLVESGGGLVQPKGSLKLSCAASGFTFNTYAMNWVRQAPGKGLEWVARIRSKYNNYATYYADSVKDRFTISRDDSQSILYLQMNNLKTEDTAMYYCVRHGNFGNSYVSWFAYWGQGTLVTVSS VL: QAVVTQESALTTSPGETVTLTCRSSTGAVTTSNYANWVQEKPDHLFTGLIGGTNKRAPGVPARFSGSLIGDKAALTITGAQTEDEAIYFCALWYSNLWVFGGGTKLTVL",27.1,0.00296,109000,–,–,–,–,–,–
"humanized sp34 BG56P (antibody, V domains shown) VH: EVQLVESGGGLVQPGGSLRLSCAASGFTFNTYAMNWVRQAPGKGLEWVARIRSKYNNYATYYADSVKDRFTISRDDAKNSLYLQMNSLRAEDTAVYYCVRHGNFGNSYVSWFAYWGQGTLVTVSS VL: EIVLTQSPATLSVSPGERATLSCRSSTGAVTTSNYANWVQQKPGQAPRGLIGGTNKRAPGIPARFSGSLSGDEATLTISSLQSEDFAVYYCALWYSNLWVFGGGTKVEIK",–,–,–,18.2,0.00112,61600,18.2,0.00112,61600

# The remaining lines, values ahead:
Kd (CD3ε/δ (SPR analyte) [1]) [nM],koff (CD3ε/δ (SPR analyte) [1]) [s⁻¹],kon (CD3ε/δ (SPR analyte) [1]) [M⁻¹ s⁻¹],Kd (CD3ε/δ (SPR analyte) [2]) [nM],koff (CD3ε/δ (SPR analyte) [2]) [s⁻¹],kon (CD3ε/δ (SPR analyte) [2]) [M⁻¹ s⁻¹],Kd (CD3ε/δ (SPR analyte) [3]) [nM],koff (CD3ε/δ (SPR analyte) [3]) [s⁻¹],kon (CD3ε/δ (SPR analyte) [3]) [M⁻¹ s⁻¹],Binder
25.4,0.00252,99300,9.62,0.00105,109000,–,–,–,"humanized sp34 BG53P (antibody, V domains shown) VH: EVQLVESGGGLVQPGGSLRLSCAASGFTFNTYAMNWVRQAPGKGLEWVARIRSKYNNYATYYADSVKDRFTISRDDAKSSLYLQMNSLRAEDTAMYYCVRHGNFGNSYVSWFAYWGQGTLVTVSS VL: QAVVTQSPATLSVSPGERATLSCRSSTGAVTTSNYANWVQEKPGQLFTGLIGGTNKRAPGIPARFSGSLSGDEATLTISSLQSEDFAIYFCALWYSNLWVFGGGTKVEIK"
–,–,–,–,–,–,25.9,0.00188,72500,"humanized sp34 scFv BG561P (scFv-Fc) (Fc fusion, not shown: a dimerising Fc or GST) scFv: EVQLVESGGGLVQPGGSLRLSCAASGFTFNTYAMNWVRQAPGKGLEWVARIRSKYNNYATYYADSVKDRFTISRDDAKNSLYLQMNSLRAEDTAVYYCVRHGNFGNSYVSWFAYWGQGTLVTVSSGGGGSGGGGSGGGGSEIVLTQSPATLSVSPGERATLSCRSSTGAVTTSNYANWVQQKPGQAPRGLIGGTNKRAPGIPARFSGSLSGDEATLTISSLQSEDFAVYYCALWYSNLWVFGGGTKVEIK"
